B1: Cell division control protein 13 (Saccharomyces cerevisiae), P32797 (parent)
chain: MDTLEEPECPPHKNRIFVSSSKDFEGYPSKAIVPVQFVALLTSIHLTETKCLLGFSNFERRGDQSQEDQYLIKLKFKDRGSERLARITISLLCQYFDIELPDLDSDSGASPTVILRDIHLERLCFSSCKALYVSKHGNYTLFLEDIKPLDLVSVISTISTKSTNSSKHSSSELISECDLNNSLVDIFNNLIEMNRDEKNRFKFVKLIHYDIELKKFVQDQQKVLSQKSKAAAINPFFVPNRLGIPYIESQNEFNSQLMTLNVDEPTTDISNMGEEMHDSADPIEDSDSSTTSSTGKYFSSKSYIQSQTPERKTSVPNNWHDDDSGSKRKRKLSFHSPNASSIRKAISYEQLSLASVGSVERLEGKIVGMNPPQFASINEFKYCTLKLYFTQLLPNVPDKVLVPGVNCIEIVIPTRERICELFGVLNCQSDKISDILLLEKPDRISVEVERILWDNDKTASPGMAVWSLKNISTDTQAQAQVQVPAQSSASIDPSRTRMSKMARKDPTIEFCQLGLDTFETKYITMFGMLVSCSFDKPAFISFVFSDFTKNDIVQNYLYDRYLIDYENKLELNEGFKAIMYKNQFETFDSKLRKIFNNGLRDLQNGRDENLSQYGIVCKMNIKVKMYNGKLNAIVRECEPVPHSQISSIASPSQCEHLRLFYQRAFKRIGESAISRYFEEYRRFFPIHRNGSHLAKLRFDEVKHEPKKSPTTPALAEHIPDLNADVSSFDVKFTDISSLLDSSARLPRPQQTHKSNTLYSCEGRIIAIEYHASDLCFHITNELPLLQTRGLAPERVLQLHIITSKNFAYFFNRSSAYLQRQPLEEKYTQLAQFLGHSFKFNITSSLTLFPDTTVALQIWCPIECTFRELQQQLAHPKVAAAPDSGSLDCAINATVNPLRLLAAQNGVTVKKEEDNDDDAGAVPTS

Variants of: B1
Details: with cdk1_yeast CDC28, P00546
Chain of cdk1_yeast CDC28, P00546 (P00546 whole entry, looked up): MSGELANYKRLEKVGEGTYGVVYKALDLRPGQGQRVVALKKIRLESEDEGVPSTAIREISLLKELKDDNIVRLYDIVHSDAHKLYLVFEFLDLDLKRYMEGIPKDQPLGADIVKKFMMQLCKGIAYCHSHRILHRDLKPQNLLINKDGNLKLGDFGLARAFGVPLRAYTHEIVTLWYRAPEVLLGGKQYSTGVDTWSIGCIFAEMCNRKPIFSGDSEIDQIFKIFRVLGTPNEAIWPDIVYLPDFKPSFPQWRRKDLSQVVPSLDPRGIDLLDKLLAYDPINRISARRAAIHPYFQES

Variant | effect of a mutation on the interaction
T308A | decreasing interaction
T308A;S336A | disrupting interaction

— IntAct's records for PubMed 19135888
